Tests used:
[1] = biological target: the molecule itself; test: crystal structure; hanging-drop vapor diffusion, 7.5 mg/ml protein in 10 mM Tris-HCl pH 7.5; reservoir 10 mM Tris-HCl pH 7.5, 15% PEG 1500, 0.1 M MgCl2, 283 K; 2.75 Å, space group P212121, ten monomers in the asymmetric unit
[2] = biological target: the molecule itself; test: SEC; Superdex 200, about 2 mg protein, 50 mM Na2HPO4 pH 7.4, 150 mM NaCl; untreated protein; molecular-weight standard curve

B1: Sulfolobus islandicus 1-Cys peroxiredoxin (1-Cys SiPrx) (enzyme, Sulfolobus islandicus REY15a)
chain: MVSEGRIPLIGEKFPEMEVITTHGKIKLPDDYKGRWFVLFSHPGDFTPVCTTEFYSFSKKYEEFKKLNTELIGLSVDSNISHIEWVMWIEKNLKVEVPFPIIADPMGNVAKRLGMIHAESSTATVRAVFIIDDKGTVRLILYYPMEIGRNIDEILRAIRALQLVDKAGVVTPANWPNNELIGDKVINPAPRTIKDAKMRLGQPFDWWFTYKEVKTT
notes: The residue numbers printed in the text (Cys49, His41, Lys24) are one lower than the positions in the printed construct (C50, H42, K25); surmise: the V at position 2 comes from the NcoI cloning site; Decamer (five homodimers) in the crystal and in solution; also called S. islandicus Bcp2; SiRe_0346; source: E. coli Rosetta, purified (HisTrap FF, dialysis); not shown: His6, C-terminal, kept; …
stoichiometry N [1]: 10 subunits
stoichiometry N [2]: ~20 subunits
